Assays:
[1] = Binding of P-EGFs to TiO2 plate, anti-EGF antibody chemiluminescence detection; settings: about 2.0 ng, 10 μl in TBS pH 7.5; washed 3 times with TBS-T; anti-human EGF antibody and HRP secondary
Experimental: Subsequently, in accordance with a scheme in the left in FIG. 4-2, various P-EGF solutions (about 2.0 ng, 10 μl in TBS, pH 7.5) were added on a TiO2 plate (a plate produced by vapor deposition of titanium on the surface of a glass plate with a diameter of 15 mm and a thickness of 0.6 mm (manufactured by Matsunami Glass Ind., Ltd.) (the vapor deposition step was requested to Osaka Vacuum Industrial Co., Ltd.) was used); and a washing operation (TBS-T buffer, pH 7.5) was repeated 3 times. And, after blocking with 0.1% BSA solution, an anti-human EGF antibody was added as a primary antibody. Furthermore, after the washing operation (TBS-T buffer, pH 7.5) was repeated 3 times, an anti-mouse IgG antibody HRP conjugate was added as a secondary antibody. At the end, using a luminescent phenomenon by a reaction between a chemiluminescence reagent and HRP as an index, the presence of protein immobilized on the TiO2 plate was detected. […]
First, in accordance with a scheme in the left in FIG. 7-1, various P-EGF solutions (about 2.0 ng, 10 μl in TBS, pH 7.5) were added on a TiO2 plate and a washing operation (TBS-T buffer, pH 7.5) was repeated 3 times. […] At the end, using a luminescent phenomenon by a reaction between a chemiluminescence reagent and HRP as an index, the presence of protein immobilized on the TiO2 plate was detected.

[2] = tested on: NRK-49F fibroblasts; experiment: NRK-49F fibroblast proliferation on sTOP1-EGF immobilized TiO2 plate; type: cell-based; settings: about 5.0 ng immobilized; ca. 5,000 cells seeded; 6 days; 1% FBS DMEM; vs TiO2 plate with EGF alone added
Experimental: First, in accordance with a scheme in the left in FIG. 7-2, sTOP1-EGF solution (about 5.0 ng, 12 μl in TBS, pH 7.5) was added onto the TiO2 plate and a washing operation (TBS-T buffer, pH 7.5) was then repeated 3 times. And, by blocking with 0.1% BSA solution, a “sTOP1-EGF immobilized TiO2 plate” was prepared. And then, ca. 5,000 NRK-49F fibroblasts were seeded on the sTOP1-EGF immobilized TiO2 plate, cultured for 6 days (1% FBS containing DMEM medium was used), and subjected to microscopy (cells were not stained).

B1: MQAYYNYYSNYYGRSYSSDGQLGQFEGNSDSECPLSHDGYCLHDGVCMYI EALDKYACNCVVGYIGERCQYRDLKWWELR (peptide)
chain: MQAYYNYYSNYYGRSYSSDGQLGQFEGNSDSECPLSHDGYCLHDGVCMYIEALDKYACNCVVGYIGERCQYRDLKWWELR
notes: chemically synthesized TOP1-EGF composed of 80 amino acids, made by peptide solid phase method
[1]
  TiO2 plate binding (luminescent phenomenon of protein immobilized on the plate): the luminescent phenomenon could be confirmed
[2]
  Proliferation of NRK-49F fibroblasts on the immobilized TiO2 plate (microscopy): markedly proliferated

Reference: patent US8697655B2, “Method of selecting polypeptide sequence, and metal oxide or silicon-containing compound binding peptide and use thereof” (Riken, priority 2010, dated 2014)
